Laboratory results as given in publication PMC4470572 (Nature communications, 2014).

Molecular target: the molecule itself
Test: single-molecule photobleaching step analysis

B1: DIC1-eGFP-3xFLAG (dynein intermediate chain 1) (natural protein, mouse, UniProt O88485 1-628, looked up)
chain: MSDKSDLKAELERKKQRLAQIREEKKRKEEERKKKEADMQQKKEPVQDDSDLDRKRRETEALLQSIGISPEPPLVPTPMSPSSKSVSTPSDAGSQDSGDLGPLTRTLQWDTDPSVLQLQSDSELGRRLHKLGVSKVTQVDFLPREVVSYSKETQTPLATHQSEEDEEDEEMVEPKIGHDSELENQEKKQETKEAPPRELTEEEKQQILHSEEFLIFFDRTIRVIERALAEDSDIFFDYSGRELEEKDGDVQAGANLSFNRQFYDEHWSKHRVVTCMDWSLQYPELMVASYSNNEDAPHEPDGVALVWNMKFKKTTPEYVFHCQSSVMSVCFARFHPNLVVGGTYSGQIVLWDNRSHRRTPVQRTPLSAAAHTHPVYCVNVVGTQNAHNLITVSTDGKMCSWSLDMLSTPQESMELVYNKSKPVAVTGMAFPTGDVNNFVVGSEEGTVYTACRHGSKAGIGEVFEGHQGPVTGINCHMAVGPIDFSHLFVTSSFDWTVKLWTTKHNKPLYSFEDNADYVYDVMWSPVHPALFACVDGMGRLDLWNLNSDTEVPTASVAIEGASALNRVRWAQGGKEVAVGDSEGRIWIYDVGELAVPHNDEWTRFARTLVEIRANRADSEEEGAVELAA
stoichiometry N: 2
